Laboratory results from article PMC3391258 (PLoS ONE, 2012).
Residue numbers refer to the chain shown, from its start. Names and notes keep the numbering of the source.

T1: TolC with a hexahistidine-tag at the C-terminus (E. coli, UniProt P02930 23-493)
T1 construct: also called TolC-His; hexa-His-tagged wild-type TolC; not shown: His6, C-terminal, kept
T1 sequence (looked up): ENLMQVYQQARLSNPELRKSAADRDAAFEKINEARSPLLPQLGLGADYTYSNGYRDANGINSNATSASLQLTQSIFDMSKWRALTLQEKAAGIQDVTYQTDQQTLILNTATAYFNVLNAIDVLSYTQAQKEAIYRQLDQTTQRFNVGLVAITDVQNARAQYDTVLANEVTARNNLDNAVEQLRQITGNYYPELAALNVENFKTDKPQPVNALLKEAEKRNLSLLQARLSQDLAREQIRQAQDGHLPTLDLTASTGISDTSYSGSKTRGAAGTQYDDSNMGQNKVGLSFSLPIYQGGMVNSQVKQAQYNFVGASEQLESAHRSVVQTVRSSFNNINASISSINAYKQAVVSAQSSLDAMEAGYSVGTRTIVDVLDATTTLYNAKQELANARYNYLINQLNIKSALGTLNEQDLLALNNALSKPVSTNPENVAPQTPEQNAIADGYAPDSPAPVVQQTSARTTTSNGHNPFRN

B1: HlyD-R186A tagged with c-Myc at the C-terminus (natural protein)
chain: MKTWLMGFSEFLLRYKLVWSETWKIRKQLDTPVREKDENEFLPAHLELIETPVSRRPRLVAYFIMGFLVIAFILSVLGQVEIVATANGKLTLSGRSKEIKPIENSIVKEIIVKEGESVRKGDVLLKLTALGAEADTLKTQSSLLQARLEQIRYQILSRSIELNKLPELKLPDEPYFQNVSEEEVLALTSLIKEQFSTWQNQKYQKELNLDKKRAERLTILARINRYENVSRVEKSRLDDFRSLLHKQAIAKHAVLEQENKYVEAANELRVYKSQLEQIESEILSAKEEYQLVTQLFKNEILDKLRQTTDSIELLTLELEKNEERQQASVIRAPVSGKVQQLKVHTEGGVVTTAETLMVIVPEDDTLEVTALVQNKDIGFINVGQNAIIKVEAFPYTRYGYLVGKVKNINLDAIEDQKLGLVFNVIVSVEENDLSTGNKHIPLSSGMAVTAEIKTGMRSVISYLLSPLEESVTESLHER
notes: also called HlyD-R186A-C-myc
B2: HlyD-T197A tagged with c-Myc at the C-terminus (natural protein)
chain: B1 chain with A186R, T197A
notes: also called HlyD-T197A-C-myc

Molecular target: T1, TolC with a hexahistidine-tag at the …
Assay: cross-linking
Details: partners not purified

Binder	crosslinking to TolC, percent of that of wild-type HlyD
B1	10 % of wild-type HlyD
B2	48 % of wild-type HlyD
